Measured values reported in patent US20230174651A1 (Janssen / Centocor, published 2023).

B1: CD8B613 (antibody, human IgG1, kappa)
heavy: not shown
light: DVQMIQSPLSLPVSLGDQASISCRSSQNIVHSNGNTYLEWYLQKPGQSPKLLIYRVSKRFSGVPDRFSGSGSGTDFTLKITRVEAEDLGVYYCFQGSHVPWTFGGGTKLEIKRTVAAPSVFIFPPSDEQLKSGTASVVCLLNNFYPREAKVQWKVDNALQSGNSQESVTEQDSKDSTYSLSSTLTLSKADYEKHKVYACEVTHQGLSSPVTKSFNRGEC
notes: Mouse variable regions on human IgG1 / human kappa constant regions
B2: CD8B622 (antibody, human IgG1, kappa)
heavy: not shown
light: DIVMTQTPLSLPVSLGDQASISCRSSQNIVHSNGNTYLEWYLQKPGQSPKLLIYRVSKRFSGVPDRFSGSGSGTDFTLKITRVEAEDLGVYYCFQGSHVPWTFGGGTKLEIKRTVAAPSVFIFPPSDEQLKSGTASVVCLLNNFYPREAKVQWKVDNALQSGNSQESVTEQDSKDSTYSLSSTLTLSKADYEKHKVYACEVTHQGLSSPVTKSFNRGEC
notes: Mouse variable regions on human IgG1 / human kappa constant regions; also called CD8B622.001
B3: CD8B623 (antibody, human IgG1, kappa)
heavy: not shown
light: DVVMTQTPLSLPVSLGDQASISCRSSQNIVHSNGNTYLEWYLQKPGQSPKLLIYRVSKRFSGVPDRFSGSGSGTDFTLKITRVEAEDLGVYYCFQGSHVPWTFGGGTKLEIKRTVAAPSVFIFPPSDEQLKSGTASVVCLLNNFYPREAKVQWKVDNALQSGNSQESVTEQDSKDSTYSLSSTLTLSKADYEKHKVYACEVTHQGLSSPVTKSFNRGEC
notes: as for B1
B4: CD8B575 (antibody, human IgG1, kappa, V domains shown)
VH: QVQLQQSGGGLVQPGGSLKLSCAASGFTFSNYYMSWARQTPEKRLEWVAYISNDGDATYYPDSVKGRFTISRDNAKNTLYLQMSSLKSEDTAMYYCTREDYYSDYWFASWGQGTTVTVSS
VL: DIVMTQSQKFMSTTIEDRVSITCKASQNVGTAVAWYQQKPGQSPKLLIYSTSNRYTGVPDRFTGSGSGTDFTLTISNIQSEDLADYFCQQYSSYPLTFGGGTKLEIKR
notes: Mouse variable regions on human IgG1 / human kappa constant regions, made in CHO cells; also called AF647-CD8B575
B5: CD8B617 (antibody, human IgG1, kappa)
heavy: not shown
light: DIQMTQSPLTLSVTIGQPASISCKSSQSLLDSDGETYLNWLLQRPGQSPKRLIYLVSKLDSGVPDRFTGSGSGTDFTLKISRVEAEDLGVYYCWQGTHFPLTFGGGTKLEIKRTVAAPSVFIFPPSDEQLKSGTASVVCLLNNFYPREAKVQWKVDNALQSGNSQESVTEQDSKDSTYSLSSTLTLSKADYEKHKVYACEVTHQGLSSPVTKSFNRGEC
notes: as for B1
B6: CD8B607 (antibody, human IgG1, kappa)
heavy: not shown
light: DIQMTQTPLTLSVTIGQPASISCKSSQSLLDSDGETYLNWLLQRPGQSPKRLIYLVSKLDSGVPDRFTGSGSGTDFTLKISRVEAEDLGVYYCWQGTHFPLTFGGGTKLEIKRTVAAPSVFIFPPSDEQLKSGTASVVCLLNNFYPREAKVQWKVDNALQSGNSQESVTEQDSKDSTYSLSSTLTLSKADYEKHKVYACEVTHQGLSSPVTKSFNRGEC
notes: as for B1
B7: CD8B611 (antibody, human IgG1, kappa, V domains shown)
VH: EVQLQQSGAELVRPGASVNLSCTASGFNFKDDYMHWVKQRPEQGLEWIGWIDPENGDAAYASKFQGKATITADTSSNTAYLQLSSLTSEDTAVYYCITIFRSYWGQGTTLTVSS
VL: not shown
notes: as for B1

Experiments:
[1] = target: T1, human CD8α on primary CD8+ T cells (human, UniProt P01732 22-235); assay: flow cytometry on PBMC, 2 µg/mL mAb, positive cells among EMRA CD8 T cells, Donor 1
T1 construct: Endogenous CD8 on T cells from PBMC; also called CD8+ primary T cells; human primary CD8+ cells
Method: (§1) Frozen PBMCs were thawed and resuspended in FACS buffer (PBS+2% FBS). Cells were then incubated with Fc block for 15 min at 4 C prior to incubation with 2 μg/mL of each CD8α hinge binders at room temperature for 45 min. […] After staining, cells were washed with FACS buffer twice and resuspended in 100 μl PBS containing DAPI for acquisition. Cells were first gated on FSC/SSC, followed by live cell gating (DAPI negative cells) followed by singlet gating. CD3 T cells were identified using FSC versus CD3 dot plot. Within the CD3 T cells, CD4 and CD8 T cells were gated. Naïve, Effector, EM and CM cells were identified within the CD8 T cells using CD45RA and CD27 dot plot. Within each of the cell types, the secondary only control was used to set the gates to identify the positive stained population. The percentage of positive cells in CD8+ T cell population with binding to CD8α hinge binders were quantified and summarized in Table 13.

[2] = target: T2, CAR with CD8α hinge as the spacer, expressed on Jurkat CAR-T cells; assay: flow cytometry (iQue) on Jurkat CAR-T cells, A647 anti-human IgG Fc detection
T2 construct: domain: CD8α hinge; also called CD8α hinge expressed on the Jurkat CAR-T cells
Method: mAbs were 1:3 serially diluted ranging from 100 nM to 1.7 pM and were incubated with cell mixture containing Jurkat CAR-T cells (unstained), Jurkat cells (CTV dye stained) and Sup-T1 cells (CSFE dye stained) in assay media (RPMI 1640+10% HI FBS+Pen/strep) for 1 hr at 37° C. […] Cells were then washed and analyzed by iQue screener (Intellicyt®). ForeCyt software was used for data analysis. The ratio of geomean of AF647 fluorescent signal from sample over the isotype control antibody (Signal) was used for the dose-dependent plot (FIGS. 2A-2F).

[3] = target: T1, human CD8α on primary CD8+ T cells; assay: flow cytometry on PBMC, 2 µg/mL mAb, positive cells among CD8+ T cells, Donor 1
Method: as §1

[4] = target: T1, human CD8α on primary CD8+ T cells; assay: flow cytometry on PBMC, 2 µg/mL mAb, positive cells among CD8+ T cells, Donor 2
Method: as §1

[5] = target: T1, human CD8α on primary CD8+ T cells; assay: flow cytometry on PBMC, 2 µg/mL mAb, positive cells among EMRA CD8 T cells, Donor 2
Method: as §1

[6] = target: T1, human CD8α on primary CD8+ T cells; assay: flow cytometry on PBMC, 2 µg/mL mAb, positive cells among EM CD8 T cells, Donor 2
Method: as §1

[7] = target: T1, human CD8α on primary CD8+ T cells; assay: flow cytometry on PBMC, 2 µg/mL mAb, positive cells among EM CD8 T cells, Donor 1
Method: as §1

[8] = target: T3, soluble CAR extracellular domain (ECD) containing scFv and CD8α hinge (UniProt P01732 138-182, biotinylated); assay: BLI (OctetRed384), GC5W48-Btn loaded on streptavidin tip; row 'average'; the sheet puts this number under 'kdis (1/s)', Table 14 of the text under 'KD (M)'
T3 construct: domain: CD8α hinge; also called soluble CAR ECD; CAR ECD
Method: (§2) To determine the binding affinity and kinetics of mAbs to CD8α hinge, soluble CAR extracellular domains (ECD) containing scFv and CD8α hinge was generated for Bio-layer interferometry (BLI) analysis using OctetRed384 (Sartorius). The CAR ECD was biotinylated and loaded to streptavidin sensor tip. Then mAbs were associated to the sensor and followed by disassociation in the assay buffer. Data was analyzed by Octet software (Sartorius).

[9] = target: T3, soluble CAR extracellular domain (ECD) …; assay: BLI (OctetRed384), GC5W48-Btn (biotinylated CAR ECD) loaded on streptavidin tip, mAb in solution; second of two table rows
Method: as §2

[10] = target: T3, soluble CAR extracellular domain (ECD) …; assay: BLI (OctetRed384), biotinylated CAR ECD on streptavidin tips; the cell stands under the head 'KD (M)' (heads shifted)
Method: as §2

[11] = target: T3, soluble CAR extracellular domain (ECD) …; assay: BLI (OctetRed384), GC5W48-Btn (biotinylated CAR ECD) loaded on streptavidin tip, mAb in solution; first of two table rows; column head 'kdis (1/s)'
Method: as §2

[12] = target: T3, soluble CAR extracellular domain (ECD) …; assay: BLI (OctetRed384), GC5W48-Btn (biotinylated CAR ECD) loaded on streptavidin tip, mAb in solution; first of two table rows
Method: as §2

[13] = target: T3, soluble CAR extracellular domain (ECD) …; assay: BLI (OctetRed384), GC5W48-Btn (biotinylated CAR ECD) loaded on streptavidin tip, mAb in solution; second of two table rows; column head 'kdis (1/s)'
Method: as §2

[14] = target: T3, soluble CAR extracellular domain (ECD) …; assay: BLI (OctetRed384), biotinylated CAR ECD on streptavidin tips; the cell stands under the head 'ka (1/Ms)' but the text gives 1.83 nM as the affinity (heads shifted)
Method: as §2

[15] = target: T3, soluble CAR extracellular domain (ECD) …; assay: BLI (OctetRed384), GC5W48-Btn loaded on streptavidin tip; row 'average'; the sheet puts this number under 'kon (1/Ms)', Table 14 of the text under 'kd (1/s)'
Method: as §2

[16] = target: T3, soluble CAR extracellular domain (ECD) …; assay: BLI (OctetRed384), biotinylated CAR ECD on streptavidin tips; the cell stands under the head 'kd (1/s)' (heads shifted)
Method: as §2

T1 sequence (P01732 22-235): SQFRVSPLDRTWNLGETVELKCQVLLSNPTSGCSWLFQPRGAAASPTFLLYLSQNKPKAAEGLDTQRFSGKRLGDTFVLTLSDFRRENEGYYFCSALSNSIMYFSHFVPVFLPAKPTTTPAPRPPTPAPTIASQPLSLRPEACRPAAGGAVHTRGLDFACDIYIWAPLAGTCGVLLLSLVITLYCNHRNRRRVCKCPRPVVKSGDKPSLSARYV
T3 sequence (P01732 138-182): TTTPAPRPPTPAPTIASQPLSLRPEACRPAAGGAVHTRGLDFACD
T2 sequence (P01732 138-182): as above

| Binder | Binding+ in EMRA (%) [1] [%] | EC50 [2] [nM] | Binding in CD8+ cells (%) [3] [%] | Binding in CD8+ cells (%) [4] [%] | Binding+ in EMRA (%) [5] [%] | Binding+ in EM (%) [6] [%] | Binding+ in EM (%) [7] [%] | koff [8] [s⁻¹] | Kd [9] [nM] | kon [9] [M⁻¹ s⁻¹] | koff [10] [s⁻¹] | koff [11] [s⁻¹] | Kd [12] [nM] | kon [12] [M⁻¹ s⁻¹] | koff [13] [s⁻¹] | Kd [14] [nM] | kon [15] [M⁻¹ s⁻¹] | kon [16] [M⁻¹ s⁻¹] |
| --- | --- | --- | --- | --- | --- | --- | --- | --- | --- | --- | --- | --- | --- | --- | --- | --- | --- | --- |
| B1 | 72 | 1.9 | 73.8 | 28.1 | 8.76 | 75.9 | 70.5 | – | – | – | – | – | – | – | – | – | – | – |
| B2 | 60.6 | 37 | 63.1 | 16.7 | 4.25 | 50.3 | 50.4 | – | – | – | – | – | – | – | – | – | – | – |
| B3 | 63.3 | 7.8 | 65.3 | 19.5 | 5.38 | 60.6 | 56.5 | – | – | – | – | – | – | – | – | – | – | – |
| B4 | 81.3 | 32.6 | 84.4 | 96.4 | 92.8 | 77.9 | 69.5 | 0.000128 | 1.65 | 46800 | 0.000128 | 0.000179 | 2.01 | 89100 | 7.72e-05 | 1.83 | 68000 | 68000 |
| B5 | 90.3 | 23.7 | 88.5 | 97.8 | 97.3 | 89.1 | 86.2 | – | – | – | – | – | – | – | – | – | – | – |
| B6 | 87.9 | 24.7 | 87.5 | 97.7 | 97.1 | 87.4 | 82.8 | – | – | – | – | – | – | – | – | – | – | – |
| B7 | 91 | 21.6 | 88.8 | 98.2 | 97.8 | 91.5 | 88.5 | – | – | – | – | – | – | – | – | – | – | – |
